Source: publication PMC6887548

Target: MCM helicase hexamer (Mcm2-7) (yeast) (UniProt P29469)
Experiment: negative-stain EM

decrease of MO formation against wild type ORC: 50%
Substance: ORC variant lacking the N-terminal 119 amino acids of Orc6, P54784;P32833;P54790;P54791;P50874;P38826
